Source: the supplement of paper PMC9170038

Legend:
[1] = system: MS2 coat protein; test: apparent KD of MS2 coat protein, switch ON state; designed switch direction (-1 OFF switch, 1 ON switch): 1; higher = weaker reporter binding; conditions: FMN input: 0 or 200 uM; Eterna round: R93 (includes R88 designs)
Method in brief: (§1)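 Designed RNA switches were transcribed on-chip from Illumina sequencing clusters. SNAP-549-labelled MS2 coat protein was titrated onto them in twofold steps from 0.7 or 1.5 nM to 3 µM in 100 mM Tris-HCl pH 7.5, 80 mM KCl, 4 mM MgCl2, either without or with constant ligand. Apparent KD reflects the per-design median of normalised cluster binding-curve fits.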

[2] = system: MS2 coat protein; test: apparent KD of MS2 coat protein, switch OFF state (with FMN for OFF switches, without FMN for ON switches); designed switch direction (-1 OFF switch, 1 ON switch): 1; higher = weaker reporter binding; conditions: FMN input: 0 or 200 uM; Eterna round: R93 (includes R88 designs)
Method in brief: as §1

Row | Sequence | apparent KD of MS2 coat protein [1] | apparent KD of MS2 coat protein [2]
1 | AAAUAACAUGAGGAUCACCCAUGUUACAACAUUACAGGAUAUGUGGGUGAAAAUAGCAUGACAGAAGGGUACUGUA [SameState1 Malc#34] | 0.479 µM | 0.393 µM
2 | AAACCACAUGAGGAUCACCCAUGUAAAAAUAACGCAGGAUAUGGAAACACGAAAGUGAAACCAGAAGGGUGAAAAG [77%, Mat - Mod of Eli, 15] | 0.0245 µM | 0.033 µM
3 | GAAAAACAUGAGGAUCACCCAUGUGAGAAUAUGGGAGGAUAUUCAAAGACGAGAGUCAAAGAAGAAGGCCUAAAAG [Mat - Same State 1 - Eli mod - 38] | 0.0293 µM | 0.161 µM
4 | AGAAAACAUGAGGAUCACCCAUGUAGAAAUAUGGGAGGAUAUACGAAGACGAAAGUCGAAGUAGAAGGCCUAAAGA [Mat - Same State 1 - Meechl mod - D126] | 0.0232 µM | 0.0508 µM
5 | AGGAAACAUGAGGAUCACCCAUGUAAAAAUAUGGGAGGAUAUACAAACAAGAAAGUCAGAGUAGAAGGCCUAAAAG [Garnet 7] | 0.0737 µM | 0.145 µM
6 | AAAAAACAUGAGGAUCACCCAUGUAAAAAAAACACAGGAUAUCCAAAAAAAAAAAAAAAAGGAGAAGGGUGAAAAA [Nob - Jieux - Same State 1] | 0.022 µM | 0.0483 µM
7 | GAAAAACAUGAGGAUCACCCAUGUAGAAAAAUGGGAGGAUAUACAAAGACGAAAGUCAAAGUAGAAGGCCUGAAAG [same state 77% mat/eli mod] | 0.0248 µM | 0.0744 µM
8 | UACAGACAUGAGGAUCACCCAUGUAGAAUUAUGGGAGGAUAUACAAAGACGAGAGUCAGAGUAGAAGGCCUAGGAC [salish99-ss1-166] | 0.0273 µM | 0.0627 µM
9 | AAAAAACAUGAGGAUCACCCAUGUAAUACAACAUCAGGAUAUUGGUUUUACUAUGUAUUACAAGAAGGGAUGAAAA [Same State 1.3b (Same State 1 - Omei 2 )] | 0.181 µM | 0.0924 µM
10 | AAGAAAGAAACAUAGGAUAUCAAGGAUAUAACAUGAGGAUCACCCAUGUAAAUACGAAAGUAUAAUGAGAAGGAUGGAUGAUCUUC [Meechl MS2 SS2] | 0.0289 µM | 0.0449 µM
11 | GAAGACGUAGGAUAGGAUAUGUGAAUAAUUACAUGAGGAUCACCCAUGUCCAUUUAUAUGGGAACAUAGAAGGGUUUUCGUUAUC [SameState2 Malc#9] | 0.341 µM | 0.281 µM
12 | AAUAAACAUGAGGAUCACCCAUGUAAAUGGGCGAUAGGAUAUGCGAAAAUAAAGAAAGAAGCAGAAGGAUCGAAGA [Ex5 sub 3] | 0.224 µM | 0.0519 µM
13 | GAAAAACAUGAGGAUCACCCAUGUGUAAACACGGGAGGAUAUACGAAGACGUAAGUCAAAGUAGAAGGCCUAAAAG [Garnet 40] | 0.0189 µM | 0.0603 µM
14 | GAUCCAACUAGUCAGGAUAUCAGGCGUAAGACAUGAGGAUCACCCAUGUCCUAAGAACAAGUAACUGAGAAGGGACAGGGCGACC [JR_SS002_Sub412] | 0.0705 µM | 0.0743 µM
15 | AGGAAACAUGAGGAUCACCCAUGUAAAAAUAUGGGAGGAUAUACAAACAAGAAAGUCAAAGUAGAAGGCCUAAAAG [Garnet 6] | 0.0637 µM | 0.152 µM
16 | GGUACUACAGAUCAGGAUAUGUUUGGGUAAACAUGAGGAUCACCCAUGUGUGCCCGAUACACAGCACAGAAGGGAUAACGUGGGA [Ditia] | 0.0162 µM | 0.0214 µM
17 | AAAUAAAAGACUAAGGAUAUGUCGCAUGACACAUGAGGAUCACCCAUGUGGUAACACAGAGGGUGGCAGAAGGUAGUCAAAAAAC [Mod 1 of Pariah 6 (Round1) by Hyphema] | 0.0458 µM | 0.446 µM
18 | AAAAGACAUGAGGAUCACCCAUGUCCUCGGACAUGAGGAUAUGUACAGACUUCGGUCUGUACAGAAGGCAUGAAAA [SS1 - 1064] | 0.052 µM | 0.233 µM
19 | AAAACACAUGAGGAUCACCCAUGUAGAAAUACGGGAGGAUAUGCGAAAACGAAAGACAAAGUAGAAGGCCUAAAAG [saturn 8] | 0.0359 µM | 0.0698 µM
20 | CGCUCACAUGAGGAUCACCCAUGUCCUAGGAGGUCAGGAUAUAGCUCGGAUGCGUUGAGGCUAGAAGGGACAGGUG [JR_SS001_Sub606] | 0.0786 µM | 0.0595 µM
21 | CACCCGUGUAUGAAGGAUAUGUAGACCCUGACAUGAGGAUCACCCAUGUAACUGUGGGUCCCAUCGCAGAAGGUCGAGACACGGG [Ribitite] | 0.0224 µM | 0.18 µM
22 | UGAAGACAUGAGGAUCACCCAUGUGGGAAUAUGGGAGGAUAUACAAAGACGAGAGUCAGAGUAGAAGGCCUAGGAU [salish99-ss1-96] | 0.0367 µM | 0.154 µM
